Results: IntAct's records for PubMed 20890305

Molecular target: MAP3K11 (UniProt Q16584)
Sequence (Q16584 whole entry, looked up): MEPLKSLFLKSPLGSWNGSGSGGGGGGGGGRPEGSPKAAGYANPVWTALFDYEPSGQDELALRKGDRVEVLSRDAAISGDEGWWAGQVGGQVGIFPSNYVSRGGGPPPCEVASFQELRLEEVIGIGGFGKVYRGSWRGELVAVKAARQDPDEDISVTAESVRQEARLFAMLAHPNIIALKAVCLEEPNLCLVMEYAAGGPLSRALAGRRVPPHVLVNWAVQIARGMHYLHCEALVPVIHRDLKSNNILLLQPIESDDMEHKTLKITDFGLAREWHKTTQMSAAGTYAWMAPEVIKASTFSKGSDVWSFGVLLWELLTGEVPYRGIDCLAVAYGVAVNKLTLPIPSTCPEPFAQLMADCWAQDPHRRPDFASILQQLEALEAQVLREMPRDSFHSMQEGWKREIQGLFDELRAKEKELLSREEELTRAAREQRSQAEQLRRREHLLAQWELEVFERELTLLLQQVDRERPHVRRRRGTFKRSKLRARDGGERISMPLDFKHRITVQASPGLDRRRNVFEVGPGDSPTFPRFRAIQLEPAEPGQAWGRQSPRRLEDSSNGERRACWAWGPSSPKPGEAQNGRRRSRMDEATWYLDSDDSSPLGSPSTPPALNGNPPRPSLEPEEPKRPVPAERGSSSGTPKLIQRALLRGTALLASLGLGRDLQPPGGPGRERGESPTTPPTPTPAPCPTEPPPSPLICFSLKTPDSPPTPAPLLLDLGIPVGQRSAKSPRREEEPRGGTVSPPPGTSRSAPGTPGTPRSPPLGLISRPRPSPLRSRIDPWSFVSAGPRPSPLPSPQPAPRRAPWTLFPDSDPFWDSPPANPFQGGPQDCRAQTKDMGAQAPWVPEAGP

Chain of Cell division control protein 42 homolog (Homo sapiens), P60953 T17N (P60953 whole entry T17N): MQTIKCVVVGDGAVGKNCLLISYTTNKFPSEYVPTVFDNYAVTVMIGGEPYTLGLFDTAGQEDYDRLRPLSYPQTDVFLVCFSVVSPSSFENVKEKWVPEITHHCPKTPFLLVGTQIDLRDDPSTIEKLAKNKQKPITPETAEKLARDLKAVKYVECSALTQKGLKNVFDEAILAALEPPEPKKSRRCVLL
Chain of Cell division control protein 42 homolog (Homo sapiens), P60953 G12V (P60953 whole entry G12V): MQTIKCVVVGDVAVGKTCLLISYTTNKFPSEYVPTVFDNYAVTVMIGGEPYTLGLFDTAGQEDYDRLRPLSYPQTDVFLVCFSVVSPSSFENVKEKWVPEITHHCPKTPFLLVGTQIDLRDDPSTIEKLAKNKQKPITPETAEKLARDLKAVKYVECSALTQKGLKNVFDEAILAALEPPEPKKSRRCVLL

## Cell division control protein 42 homolog (Homo sapiens), P60953 G12V
  effect of a mutation on the interaction: decreasing interaction

## Cell division control protein 42 homolog (Homo sapiens), P60953 T17N
  effect of a mutation on the interaction: disrupting interaction
